Results reported in patent US20200239573A1 (CRESCENDO BIOLOGICS, published 2020).
Where a chain is given by its changes, count along the chain named. Several values for one entry are separate records, joined by “and”; a condition that tells them apart may be missing. Identical values can stand only once. Like-named read-outs stand apart in the source and are kept apart here.

Columns and labels:
mouse PD-1 protein [1] = target: T1, mouse PD-1 protein (mouse, UniProt Q02242 25-167); assay: HTRF binding
T1 construct: Detected with anti human-Fc cryptate, so probably Fc tagged; also called mouse PD-1 (R&D Systems cat no. 1021-PD)
T1 sequence (looked up): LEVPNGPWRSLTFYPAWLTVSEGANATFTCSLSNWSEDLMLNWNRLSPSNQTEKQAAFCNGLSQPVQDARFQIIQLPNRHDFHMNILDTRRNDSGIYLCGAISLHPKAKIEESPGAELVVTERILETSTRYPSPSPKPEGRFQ

[2] = target: T2, human PD-1 expressed on cells (CHO human PD-1 cells) (human, UniProt Q15116 21-288); assay: cell-based or functional assay
T2 sequence (Q15116 21-288): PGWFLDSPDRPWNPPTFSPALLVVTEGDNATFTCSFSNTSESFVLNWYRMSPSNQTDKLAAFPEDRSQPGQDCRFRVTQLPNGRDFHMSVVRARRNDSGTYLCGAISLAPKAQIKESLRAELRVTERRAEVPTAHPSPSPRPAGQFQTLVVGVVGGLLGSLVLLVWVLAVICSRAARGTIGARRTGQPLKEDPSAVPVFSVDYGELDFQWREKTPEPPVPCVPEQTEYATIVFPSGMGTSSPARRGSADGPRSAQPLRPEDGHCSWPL

[3] = target: T3, Strep tagged recombinant human PD-1 (human, UniProt Q15116 25-170, limits assumed); assay: SPR Biacore T200, strep-tagged PD-1 amine-coupled, single cycle kinetics
T3 construct: the whole entry is named; also called strep tagged human PD-1; not shown: Strep tag
T3 sequence (Q15116 25-170 limits assumed): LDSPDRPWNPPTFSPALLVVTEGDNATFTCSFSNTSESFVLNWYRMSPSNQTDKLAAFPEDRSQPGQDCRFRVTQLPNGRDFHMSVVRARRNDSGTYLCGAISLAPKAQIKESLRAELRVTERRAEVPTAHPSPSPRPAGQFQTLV

[4] = target: T2, human PD-1 expressed on cells (CHO …); assay: cell-based or functional assay; remark: listed apart in the source
[5] = target: T2, human PD-1 expressed on cells (CHO …); assay: FMAT inhibition assay on CHO human PD-1 cells; blocked ligand: human Fc tagged human PD-L1
Procedure: (§1) All reagents and serially diluted VH were prepared in FMAT assay buffer. […] Plates were incubated for 2 hours at room temperature then fluorescence measured in the FL2 (502 nm-537 nm) and FL5 (677-800 nm) channels on the Mirrorball plate reader (TTP) following excitation at 488 nm and 640 nm. Data was expressed as a % of the total binding control (i.e. % control) after subtraction of the background signal determined from the non-specific binding control wells.

mouse PD-1 protein [6] = target: T1, mouse PD-1 protein; assay: HTRF binding, 2 nM mouse PD-1
Procedure: (§2) e) Species Cross Reactivity Testing Purified […] were tested for their ability to bind to human PD-1 (R&D Systems cat no. 1086-PD), cynomolgus PD-1 (Acro Biosystems cat no. PD-1-05254) and mouse PD-1 (R&D Systems cat no. 1021-PD) in an HTRF Binding assay format. All reagents and serially diluted VH were prepared in assay buffer containing PBS, 0.1% BSA and 0.4M Potassium Fluoride. Samples or assay buffer (non-specific binding) were incubated with 2 nM human/cynomolgus or mouse PD-1, 1 nM Anti human-Fc Cryptate PAb (Cisbio cat. no. 61HFCKLB) and 30 nM anti His-D2 (CisBio cat no 61HISDLA) in black 384-shallow well assay plates for a minimum of 3 hours at room temperature. Time-resolved fluorescent emission at 620 nm and 665 nm was measured following excitation at 337 nm on the BMG PHERAstar plate reader. The HTRF ratio were calculated ((665 nm emission/620 nm emission)*10000) and the data corrected for (non-specific binding) to give the specific binding signal.

[7] = target: T4, recombinant human PD-1 Fc chimera (human, UniProt Q15116 25-167); assay: HTRF binding, 2 nM PD-1, anti-Fc cryptate and anti-His-D2
T4 construct: Bought protein; also called human PD-1-huFc; huPD-1-Fc; not shown: human Fc
T4 sequence (Q15116 25-167 limits assumed, change not shown): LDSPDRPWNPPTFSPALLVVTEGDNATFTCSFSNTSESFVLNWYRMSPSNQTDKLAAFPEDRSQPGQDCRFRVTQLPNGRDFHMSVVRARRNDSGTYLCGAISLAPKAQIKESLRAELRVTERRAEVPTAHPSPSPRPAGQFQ
Procedure: as §2

[8] = target: T5, cynomolgus PD-1 recombinant protein (cynomolgus, UniProt B0LAJ3 25-170); assay: as above
T5 construct: Detected with anti human-Fc cryptate, so probably Fc tagged; also called cyno PD-1; cynomolgus PD-1 (Acro Biosystems cat no. PD-1-05254); not shown: The vendor's carrier tag; It is probably a human Fc, since detection used anti human-Fc cryptate
T5 sequence (B0LAJ3 entry or part of it limits assumed): as the sequence (Q15116 25-170 limits assumed) above, with D2E, P10A, V19L, T35A, Q75R, T144A counted along it
Procedure: as §2

[9] = target: T4, recombinant human PD-1 Fc chimera; assay: HTRF inhibition; biotinylated PD-L2-Fc vs Eu-cryptate PD-1-Fc
[10] = target: T4, recombinant human PD-1 Fc chimera; assay: HTRF inhibition; strep-tagged PD-L1 vs PD-1-Fc
[11] = target: T4, recombinant human PD-1 Fc chimera; assay: SPR Biacore T200, PD-1-huFc amine-coupled, single cycle kinetics
Procedure: Binding kinetics of certain VH single domain antibodies binding to human PD-1-huFc were measured by surface plasmon resonance (SPR) technology using Biacore T200 instrument (GE Healthcare). Recombinant human PD-1-huFc was immobilized by standard amine coupling to CM5 sensorschip (GE Healthcare) using in range of 0.1-0.01 mg/ml solution of antigen in 10 mM sodium acetate at pH 5.5. For the reference flow cell, a blank immobilisation was carried out. Single cycle kinetics assays were used to study the interaction, a five point, three-fold dilution series of each Humabody® was made with a top concentration of 30 nM. The binding kinetics were followed by flowing the Humabody® over the chip surface in HBS EP+ buffer at a flow rate of 30 μl/min. The contact time for each of the association steps was 180 seconds and the dissociation step was varied between 1200-3600 seconds. The data was fitted to a 1:1 binding model after double reference subtraction using the Biacore T200 Evaluation software.

[12] = target: human PD-1 expressed on cells (CHO human PD-1 cells) (human) (UniProt Q15116); assay: FMAT 1.57 epitope competition assay on CHO human PD-1 cells; competitor: 1.57-Strep tagged protein; 1 day in mouse serum
Chain of human PD-1 expressed on cells (CHO human PD-1 cells) (human) (Q15116 21-288): as the sequence (Q15116 21-288) above

[13] = target: human PD-1 expressed on cells (CHO human PD-1 cells) (human) (UniProt Q15116); assay: FMAT inhibition assay on CHO human PD-1 cells; blocked ligand: human Fc tagged human PD-L1
[14] = target: T2, human PD-1 expressed on cells (CHO …); assay: FMAT inhibition assay on CHO human PD-1 cells; blocked ligand: human Fc tagged human PD-L1; a separate run from Figure 4 a)
Procedure: as §1

[15] = target: T2, human PD-1 expressed on cells (CHO …); assay: FMAT 1.57 epitope competition assay on CHO human PD-1 cells; competitor: 1.57-Strep tagged protein; 1 day in mouse serum
Procedure: (§3) For the epitope competition assay reagents were prepared in FMAT assay buffer. […] Plates were incubated for a minimum of 1.5 hours at room temperature then fluorescence measured in the FL2 (502 nm-537 nm) and FL5 (677-800 nm) channels on the Mirrorball plate reader (TTP) following excitation at 488 nm and 640 nm. Data was expressed as a % of the total binding control (i.e. % control) after subtraction of the background signal determined from the non-specific binding control wells.
(§4) Serum stability of VH and multivalent VH constructs was assessed by measurement of their activity following incubation for 0, 1, 4 or 7 days in mouse serum (Sigma M5905).

[16] = target: human PD-1 expressed on cells (CHO human PD-1 cells) (human) (UniProt Q15116); assay: cell-based or functional assay
[17] = target: T4, recombinant human PD-1 Fc chimera; assay: SPR Biacore T200, PD-1-Fc captured on protein G, single cycle kinetics
Procedure: Single cycle kinetics assays were used to study the interaction between human Fc tagged human PD-1 with Humabody® on a Biacore T200 instrument (GE Healthcare). Protein G was amine coupled to two flow cells of a CM-5 chip. Human Fc tagged recombinant human PD-1 was captured onto one of the flow cells. The other was used as the reference flow cell. A five point, three-fold dilution series of each Humabody® was made with a top concentration within the range of 50 to 150 nM. The binding kinetics were followed by flowing the Humabody® over the chip surface in HBS EP+ buffer at a flow rate of 30 μl/min. The contact time for each of the association steps was 180 seconds and the dissociation step was 3600 seconds. The data was fitted to a 1:1 binding model after double reference subtraction using the Biacore T200 Evaluation software.

[18] = target: T2, human PD-1 expressed on cells (CHO …); assay: FMAT 1.57 epitope competition assay on CHO human PD-1 cells; competitor: 1.57-Strep tagged protein; 7 days in mouse serum
Procedure: as §3, §4

[19] = target: T2, human PD-1 expressed on cells (CHO …); assay: FMAT 1.57 epitope competition assay on CHO human PD-1 cells; competitor: 1.57-Strep tagged protein; 4 days in mouse serum
Procedure: as §3, §4

[20] = target: T2, human PD-1 expressed on cells (CHO …); assay: FMAT 1.57 epitope competition assay on CHO human PD-1 cells; competitor: 1.57-Strep tagged protein; 0 days in mouse serum
Procedure: as §3, §4

[21] = target: human PD-1 expressed on cells (CHO human PD-1 cells) (human) (UniProt Q15116); assay: FMAT 1.57 epitope competition assay on CHO human PD-1 cells; competitor: 1.57-Strep tagged protein; 7 days in mouse serum
[22] = target: human PD-1 on primary human CD4+ T cells (human, UniProt Q15116 21-288); assay: flow cytometry on PHA-stimulated human CD4+ T cells (live cell gate)
Chain of human PD-1 on primary human CD4+ T cells (Q15116 21-288): as above
Procedure: Binding of monovalent single domain antibodies and multivalent binding agents to T cells was measured using flow cytometry. […] T-cells were stimulated with 2.5 μg/ml PHA for 2-4 days in RPMI media supplemented with 10% FBS, 2 mM Glutamine, 1× Pen/Strep. Cells were transferred into 96 well plates (75000 per well), blocked for 10 mins with PBS/1% BSA, then incubated with serially diluted VH in staining buffer (PBS/1% BSA) for 1 hour at 4° C. Cells were washed with staining buffer by centrifugation then incubated with 10 μg/ml biotinylated Anti His antibody for 40 mins at 4° C. Cells were washed again then stained with Streptavidin Alexa Fluor-488 (10 μg/ml) and 1:5000 diluted Live Dead near IR stain (Molecular Probes cat no. L10119) for 30 mins at 4° C. After further washing cells were fixed and fluorescence measured by flow cytometry.

[23] = target: human PD-1 expressed on cells (CHO human PD-1 cells) (human) (UniProt Q15116); assay: FMAT 1.57 epitope competition assay on CHO human PD-1 cells; competitor: 1.57-Strep tagged protein; 0 days in mouse serum
[24] = target: T2, human PD-1 expressed on cells (CHO …); assay: cell-based or functional assay; remark: listed apart in the source

B1: 1.57-4GS-1.57 (other)
chain: QVQLVESGGGLVKPGGSLRLSCAASGFTFSDNSMTWMRQAPGKGLEWVSYISSGGGVIFYADSVKGRFTISRDNAKNSLYLQMNSLRADDTAVYYCAREAPLRLGESPHDAFDISGQGTMVTVSSGGGGSGGGGSGGGGSGGGGSQVQLVESGGGLVKPGGSLRLSCAASGFTFSDNSMTWMRQAPGKGLEWVSYISSGGGVIFYADSVKGRFTISRDNAKNSLYLQMNSLRADDTAVYYCAREAPLRLGESPHDAFDISGQGTMVTVSS
notes: bivalent construct of two VH domains in one chain
Mouse PD-1 protein [1]
  binding result: no binding
[2]
  EC50 (M), human PD-1 reporter gene assay: 1e-09 M
[3]
  Kd: 0.0173 nM
  koff: 1.54e-05 s⁻¹
  kon: 888000 M⁻¹ s⁻¹
[4]
  EC50 (M), reporter assay: 1e-09 M

B2: Humabody® 1.1 (VHH)
VHH: QVQLVESGGGLVKPGGSLRLSCAASGFTFSDYTMTWMRQAPGKGLEWVSYISTGGTIKYYTDSVKGRFTISRDNAKNSLYLQMNSLRADDTAVYYCAREAPLRLGESPHDAFDIWGQGTMVTVSS
notes: human VH single domain antibody; also called VH single domain antibody 1.1; clone 1.1
[5]
  IC50 (read off the curve): ~20 nM
Mouse PD-1 protein [6]
  binding result: no binding
[7]
  EC50: 4 nM
[8]
  EC50: 6.3 nM
[9]
  IC50: 4.9 nM
[10]
  IC50: 1.27 nM
[11]
  Kd: 0.676 nM
  koff: 7.35e-05 s⁻¹
  kon: 109000 M⁻¹ s⁻¹

B3: Humabody® 1.57 (VHH)
VHH: B2 VHH with Y32N, T33S, T53S, T56G, I57V, K58I, Y59F, T61A, W115S
notes: human VH single domain antibody
[12]
  IC50 (read off the curve): 1 nM
[13]
  IC50 (read off the curve): 6 nM
[14]
  IC50 (read off the curve): ~4 nM
[15]
  IC50 (read off the curve): ~0.7 nM
[16]
  EC50 (M), human PD-1 reporter gene assay: 1e-08 M
  EC50 (M), reporter assay: 1e-08 M
[17]
  Kd: 0.0586 nM and 0.0533 nM
  koff: 1.99e-05 s⁻¹ and 2.32e-05 s⁻¹
  kon: 340000 M⁻¹ s⁻¹ and 435000 M⁻¹ s⁻¹
[18]
  IC50 (read off the curve): ~2 nM
Mouse PD-1 protein [6]
  binding result: no binding
[7]
  EC50: 0.59 nM
[8]
  EC50: 0.75 nM
[19]
  IC50 (read off the curve): ~1 nM
[20]
  IC50 (read off the curve): ~0.4 nM
[21]
  IC50 (read off the curve): 3 nM
[22]
  EC50 (read off the curve): 1 nM
[22]; record 2
  EC50 (read off the curve): ~0.2 nM
[23]
  IC50 (read off the curve): 2 nM
[24]
  Reporter Assay EC50: 8.6 nM
